The source of these data is patent US20250340636A1 (Memorial Sloan Kettering, published 2025).

Test [1] concerns the target T1, human L1CAM on cells (human, UniProt P32004 20-1257).
T1 construct: Overexpressed on stably transfected HEK293T cells or endogenous on MCF-7 and MDA-MB-231 cells; also called HEK293T-hL1CAM
Nature of the test: flow cytometry, MCF-7 cells. As to the method: (§1) Binding Analysis. […] Dissociation constants (KD) for binding to soluble human and cynomolgus monkey L1CAM-His were determined using biolayer interferometry (BLI). In addition, EC50 values for binding to cell-bound L1CAM were established by flow cytometry using HEK293T/FT cells overexpressing human or mouse L1CAM, MCF-7 cells, and MDA-MB-231 cells. In addition, the epitope regions of the mAbs were determined by BLI interaction analysis with L1CAM subdomains (Ig and FN) expressed individually, and by a BLI competition experiment to identify epitope bins.

Test [2] concerns the target T2, extracellular domain of human L1CAM (isoform 1) fused to a poly-histidine tag via its carboxy terminus (human, UniProt P32004 20-1120).
T2 construct: Bought (Creative Biomart); also called L1CAM-His; huL1CAM protein
Nature of the test: BLI, soluble human L1CAM-His. As to the method:
as §1
On the technique in general: Biolayer interferometry detects binding as a change in optical thickness at a sensor tip.

The target in test [3] is T1, human L1CAM on cells. Nature of the test: flow cytometry, MDA-MB-231 cells. As for the experimental part: as §1
(In general: In flow cytometry, cells or beads pass a laser one at a time.)

Test [4] deals with T3, soluble cynomolgus monkey L1CAM, His-tagged, monomeric (cynomolgus monkey, UniProt A0A2K5URB5 20-1120).
T3 construct: also called cyL1CAM protein; cynomolgus L1CAM-His
The experiment in a line: BLI, soluble cynomolgus L1CAM-His. As to the method:
as §1

Test [5] concerns the target T1, human L1CAM on cells. The experiment in a line: flow cytometry, HEK293T cells overexpressing human L1CAM. As for the experimental part: as §1
The target of test [6] is T4, mouse L1CAM on transiently transfected HEK293FT cells (mouse, UniProt P11627 20-1260).
T4 construct: whole, on cells; also called mouse L1CAM on cells
T4 sequence (P11627 20-1260): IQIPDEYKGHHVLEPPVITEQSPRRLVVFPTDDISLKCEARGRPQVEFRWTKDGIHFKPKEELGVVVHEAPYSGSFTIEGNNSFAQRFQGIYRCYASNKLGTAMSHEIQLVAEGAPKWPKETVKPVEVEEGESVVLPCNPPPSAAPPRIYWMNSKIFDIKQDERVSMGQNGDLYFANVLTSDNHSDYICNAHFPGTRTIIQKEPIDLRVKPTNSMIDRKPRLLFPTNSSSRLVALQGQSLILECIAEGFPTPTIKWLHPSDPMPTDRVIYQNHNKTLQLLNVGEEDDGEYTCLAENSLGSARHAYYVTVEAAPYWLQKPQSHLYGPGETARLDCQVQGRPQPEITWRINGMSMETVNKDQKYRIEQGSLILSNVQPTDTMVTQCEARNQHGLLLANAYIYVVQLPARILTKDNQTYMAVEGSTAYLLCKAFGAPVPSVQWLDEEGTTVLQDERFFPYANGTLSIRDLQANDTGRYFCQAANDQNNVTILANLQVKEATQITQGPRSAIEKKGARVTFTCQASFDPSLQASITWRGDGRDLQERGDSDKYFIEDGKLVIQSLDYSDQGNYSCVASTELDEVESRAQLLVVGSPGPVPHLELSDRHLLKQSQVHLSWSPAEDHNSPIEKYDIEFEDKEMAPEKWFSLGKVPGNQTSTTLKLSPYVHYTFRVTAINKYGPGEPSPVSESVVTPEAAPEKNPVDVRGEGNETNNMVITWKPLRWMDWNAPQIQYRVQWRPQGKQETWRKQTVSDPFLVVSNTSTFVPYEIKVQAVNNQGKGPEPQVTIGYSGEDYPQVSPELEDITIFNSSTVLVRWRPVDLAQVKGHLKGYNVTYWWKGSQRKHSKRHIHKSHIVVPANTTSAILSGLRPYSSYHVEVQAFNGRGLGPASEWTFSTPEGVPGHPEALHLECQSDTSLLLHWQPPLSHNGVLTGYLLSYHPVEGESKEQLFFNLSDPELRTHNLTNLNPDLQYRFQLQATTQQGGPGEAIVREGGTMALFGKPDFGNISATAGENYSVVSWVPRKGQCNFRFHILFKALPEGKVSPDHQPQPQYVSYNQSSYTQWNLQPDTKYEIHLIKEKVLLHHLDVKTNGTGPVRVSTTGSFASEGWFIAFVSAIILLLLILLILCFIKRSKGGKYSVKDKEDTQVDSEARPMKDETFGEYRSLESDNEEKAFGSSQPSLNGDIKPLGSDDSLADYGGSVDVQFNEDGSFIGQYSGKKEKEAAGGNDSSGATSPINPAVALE
The experiment in a line: flow cytometry, HEK293FT cells transfected with mouse L1CAM.

In test [7] the target is T1, human L1CAM on cells. Nature of the test: cell-based or functional assay.
The target in test [8] is T1, human L1CAM on cells. The experiment in a line: FACS on cells expressing L1CAM (293FT or MDA-MB-231; the table does not say which). As for the experimental part:
Briefly, CDR-grafted heavy and light chains were expressed in various combinations and the antigen-binding properties were evaluated.

For test [9], the target named is T2, extracellular domain of human L1CAM …. Nature of the test: BLI, soluble human L1CAM-His; off-rate below detection limit.
Test [10] has as its target T5, recombinant L1CAM-Fc fusion protein (human, UniProt P32004 20-1120).
T5 construct: also called recombinant L1CAM protein; not shown: human Fc fused to the carboxy terminus
Nature of the test: BLI, L1CAM-Fc on AHC biosensors, Fab 3-200 nM, 1:1 fit. As for the experimental part:
Here, recombinant L1CAM-Fc fusion protein was immobilized onto anti-Human IgG Fc Capture (AHC) biosensors and binding of Fabs was measured kinetically over a 3-200 nM concentration range. Kinetic data were fitted to a 1:1 binding model to compute association (kₒₙ) and dissociation (koff) rate constants, in addition to equilibrium dissociation constants (KD) as shown in Table 87.

T1 sequence (P32004 20-1257): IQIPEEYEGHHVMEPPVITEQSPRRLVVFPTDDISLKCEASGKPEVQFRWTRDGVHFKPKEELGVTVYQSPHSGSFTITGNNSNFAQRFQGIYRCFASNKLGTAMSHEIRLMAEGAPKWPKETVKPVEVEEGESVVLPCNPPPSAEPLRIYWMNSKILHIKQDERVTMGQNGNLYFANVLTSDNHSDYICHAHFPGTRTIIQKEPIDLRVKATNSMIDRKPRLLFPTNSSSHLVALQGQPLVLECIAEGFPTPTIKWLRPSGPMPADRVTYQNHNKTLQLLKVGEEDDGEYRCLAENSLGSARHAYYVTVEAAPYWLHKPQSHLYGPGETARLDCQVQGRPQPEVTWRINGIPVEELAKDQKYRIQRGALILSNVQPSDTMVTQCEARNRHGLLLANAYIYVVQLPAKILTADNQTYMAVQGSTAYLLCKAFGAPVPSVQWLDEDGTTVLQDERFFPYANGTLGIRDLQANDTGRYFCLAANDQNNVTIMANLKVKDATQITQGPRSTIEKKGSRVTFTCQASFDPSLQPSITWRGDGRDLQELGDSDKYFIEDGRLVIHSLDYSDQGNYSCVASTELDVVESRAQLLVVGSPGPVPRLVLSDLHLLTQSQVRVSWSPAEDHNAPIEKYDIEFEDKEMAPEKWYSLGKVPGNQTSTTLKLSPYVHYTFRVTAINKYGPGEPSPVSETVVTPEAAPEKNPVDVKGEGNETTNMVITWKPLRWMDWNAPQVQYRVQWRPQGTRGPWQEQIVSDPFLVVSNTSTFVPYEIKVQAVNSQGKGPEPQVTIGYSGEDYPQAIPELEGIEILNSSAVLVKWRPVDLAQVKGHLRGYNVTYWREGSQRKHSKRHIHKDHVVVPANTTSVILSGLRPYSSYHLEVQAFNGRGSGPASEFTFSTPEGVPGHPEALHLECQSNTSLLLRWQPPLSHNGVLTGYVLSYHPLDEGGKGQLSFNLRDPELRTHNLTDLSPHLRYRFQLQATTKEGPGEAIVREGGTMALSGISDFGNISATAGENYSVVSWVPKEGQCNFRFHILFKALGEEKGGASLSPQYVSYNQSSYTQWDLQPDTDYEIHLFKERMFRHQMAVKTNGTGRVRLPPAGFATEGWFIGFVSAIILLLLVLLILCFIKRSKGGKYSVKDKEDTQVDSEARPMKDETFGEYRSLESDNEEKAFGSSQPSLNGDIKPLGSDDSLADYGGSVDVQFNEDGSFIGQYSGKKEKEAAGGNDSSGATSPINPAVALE
T5 sequence (P32004 20-1120): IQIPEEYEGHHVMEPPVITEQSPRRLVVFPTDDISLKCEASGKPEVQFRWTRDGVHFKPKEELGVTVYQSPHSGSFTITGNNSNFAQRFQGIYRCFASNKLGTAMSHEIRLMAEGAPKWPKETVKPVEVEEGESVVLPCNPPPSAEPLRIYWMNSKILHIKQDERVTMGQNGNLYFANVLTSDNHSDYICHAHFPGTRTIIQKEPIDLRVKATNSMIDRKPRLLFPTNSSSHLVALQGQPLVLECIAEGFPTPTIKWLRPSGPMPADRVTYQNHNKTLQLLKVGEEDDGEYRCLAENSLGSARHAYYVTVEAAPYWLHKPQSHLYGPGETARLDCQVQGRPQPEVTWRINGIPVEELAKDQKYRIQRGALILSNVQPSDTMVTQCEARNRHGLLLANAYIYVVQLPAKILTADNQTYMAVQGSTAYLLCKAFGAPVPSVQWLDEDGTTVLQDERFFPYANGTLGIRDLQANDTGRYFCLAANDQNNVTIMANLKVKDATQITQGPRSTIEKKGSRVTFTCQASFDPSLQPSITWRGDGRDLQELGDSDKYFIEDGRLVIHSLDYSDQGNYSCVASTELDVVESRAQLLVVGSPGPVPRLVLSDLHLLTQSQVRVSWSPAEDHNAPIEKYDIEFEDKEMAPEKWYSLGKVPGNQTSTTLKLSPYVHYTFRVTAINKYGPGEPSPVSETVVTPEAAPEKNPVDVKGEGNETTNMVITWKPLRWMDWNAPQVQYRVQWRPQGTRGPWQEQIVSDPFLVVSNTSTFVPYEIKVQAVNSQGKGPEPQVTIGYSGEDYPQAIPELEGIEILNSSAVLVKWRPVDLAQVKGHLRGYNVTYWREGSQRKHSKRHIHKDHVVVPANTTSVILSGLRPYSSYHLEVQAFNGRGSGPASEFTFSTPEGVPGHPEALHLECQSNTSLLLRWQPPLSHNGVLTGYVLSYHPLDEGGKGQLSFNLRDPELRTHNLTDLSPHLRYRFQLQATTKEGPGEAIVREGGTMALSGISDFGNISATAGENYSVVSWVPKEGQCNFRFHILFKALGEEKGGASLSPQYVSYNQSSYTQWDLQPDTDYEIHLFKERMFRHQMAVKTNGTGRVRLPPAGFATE
T2 sequence (P32004 20-1120): as above

B1: 04B06 (antibody, V domains shown)
VH: QVQLQESGPGLVKPSETLSLTCTVSGGSINSYYWSWIRQPAGKGLEWIGRFYTSGSTNHNPSLKSRVTMSVDTSKNQFSLKLTSVTAADTAVYYCAREWSGSFYGGDAFDIWGQGTMVTVSS
VL: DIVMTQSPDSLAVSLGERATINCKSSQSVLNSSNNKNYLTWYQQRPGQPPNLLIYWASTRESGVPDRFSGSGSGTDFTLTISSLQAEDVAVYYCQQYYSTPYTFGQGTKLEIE
notes: mAb from AlivaMab mice (human immunoglobulin repertoire), purified from hybridoma supernatant
The term EC50 denotes the concentration needed to bring the measured effect to its halfway point. Usually Kd stands for a measure of binding affinity in units of concentration. As for B1, the EC50 is 1.1 nM in test [1], 9.6 nM in test [3] and 2.3 nM in [5]. Moreover, the equilibrium dissociation constant (Kd) in test [2] worked out at 0.07 nM; in test [4], 0.6 nM. The binding result in [6] was “no binding”.

B2: TDI-Y-005 ADC with PNU-159682 and a cleavable Glu-Val-Cit linker (antibody, human IgG1, kappa, V domains shown)
VH: EVQMVESGGGLVQPGGSLRLSCAAPGFIFSSYNMNWVRQAPGKGLEWVSYISSSSSTTYYADSVKGRFTISRDNAKNSLYLQMNSLRDEDTAVYYCASLYSGYDYYYYYGMDVWGQGTTVTVSS
VL: DIVMTQTPLSSPVSLGQPASISCRSSQSLVHSDGNTYLSWLQQRPGQPPRVLIYKISKRFSGVPDRFSGSGAGTDFTLKISRVEAEDVGVYYCMQATQFPFTFGPGTKVDIKR
modifications: ThioBridge linker-payload on the interchain disulfide cysteine; ThioBridge-Glu[-Glu(OH)-Val-Cit-PAB-DMEA-PNU159682]-PEG(24) rebridging the reduced interchain disulfide cysteines; average DAR about 4
B2: in [7], the “EC50 of cytotoxicity, HEK293T-hL1CAM cells (CellTiterGlo, 96 hours)” value is 0.03 nM; the “EC50 of cytotoxicity, MCF-7 cells (CellTiterGlo, 96 hours)” value was determined as 0.4 nM; the “EC50 of cytotoxicity, MDA-MB-231 cells (CellTiterGlo, 96 hours)” value was determined as 12.4 nM.

B3: 14A10 (antibody, V domains shown)
VH: EVQMVESGGGLVQPGGSLRLSCAAPGFIFSSYNMNWVRQAPGKGLEWVSYISSSSSTTYYADSVKGRFTISRDNAKNSLYLQMNSLRDEDTAVYYCASLYSGYDYYYYYGMDVWGQGTTVTVSS
VL: DIVMTQTPLSSPVSLGQPASISCRSSQSLVHSDGNTYLSWLQQRPGQPPRVLIYKISKRFSGVPDRFSGSGAGTDFTLKISRVEAEDVGVYYCMQATQFPFTFGPGTKVDIK
notes: mAb from AlivaMab mice
Regarding B3, the concentration for a half-maximal effect (EC50) was 5.3 nM in test [1], 8.9 nM in [3], 3.5 nM in [5] and 5.6 nM in test [6]. Besides, the Kd in [2] was 1.2 nM; in test [4] it was 3.2 nM.

B4: hu14A10 (antibody, V domains shown)
VH: EVQMVESGGGLVQPGGSLRLSCAAPGFIFSSYNMNWVRQAPGKGLEWVSYISSSSSTTYYADSVKGRFTISRDNAKNSLYLQMNSLRDEDTAVYYCASLYSGYDYYYYYGMDVWGQGTTVTVSS
VL: DIVMTQTPLSSPVSLGQPASISCRSSQSLVHSDGNTYLSWLQQRPGQPPRVLIYKISKRFSGVPDRFSGSGAGTDFTLKISRVEAEDVGVYYCMQATQFPFTFGPGTKVDIK
Turning to B4, the EC50 in test [8] is 5.93 nM.

B5: 13G04 (antibody, V domains shown)
VH: QVQLVQSGAEVKKPGASVKVSCKASGYTFIGYYLHWVRQAPGQGLEWMGWINPNSGGTNSAQKFQGRVTMTRDTSISTTYMDLSRLRSDDTAVYYCARGGLERRDAFDIWGQGTLVTVSS
VL: DIQMTQSPSTLSASVGDRVTITCRASQSISNWLAWYQQKPGKAPNLLIYKASSLESGVPSRFSGSGSGTEFTLTISSLQPDDFATYYCQQYDTYRTFGQGTKVEIK
notes: mAb from AlivaMab mice, purified from hybridoma supernatant
In the case of B5, the EC50 in test [1] came to 4.8 nM; in [3], 6.7 nM; in test [5], 4.8 nM. The dissociation constant (Kd) in test [4] is 3.2 nM; in [9], under 0.02 nM. Further, the binding result in test [6] was “no binding”.

B6: 76H12 Fab construct 2 (humanized) (Fab, V domains shown)
VH: QVQLVQSGAEVKKPGASVKVSCKASGYTFTSYWMHWVRQAPGQGLEWMGNVYPGSGSTKYAQKFQGRVTMTRDTSTSTVYMELSSLRSEDTAVYYCARPGNYEGFAYWGQGTLVTVSS
VL: NIQLTQSPSSLSASVGDRVTITCRASESVDSYGSSFMHWYQQKPGKPPKLLIYLASNLESGVPSRFSGSGSGTDFTLTISSLQPEDFATYYCQQNNEDPWTFGQGTKLEIK
notes: also called Fab 2
As usually defined, the koff is the first-order rate constant of dissociation. The term kon denotes the rate constant with which the complex forms. B6: in [10], the Kd came to 88.8 nM, the koff stood at 0.0706 s⁻¹ and the kon came out at 797000 M⁻¹ s⁻¹.

B7: TDI-Y-004 ADC with PNU-159682 and a cleavable Glu-Val-Cit linker (antibody, human IgG1, kappa, V domains shown)
VH: QVQLVQSGAEVKKPGSSVKVSCKASGYTFTNYYIHWVRQAPGQGLEWMGKIGPGSGSPYYQGMFKDRVTITADESTSTAYMELSSLRSEDTAVYYCARWLLPFDYWGQGTLVTVSS
VL: EIVLTQSPGTLSLSPGERATLSCRASSSVNYMHWYQQKPGQAPRLLIYATSILASGIPDRFSGSGSGTDYTLTISRLEPEDFAVYYCQQFSSDPLTFGGGTKVEIKR
modifications: ThioBridge linker-payload on the interchain disulfide cysteine; ThioBridge-Glu[-Glu(OH)-Val-Cit-PAB-DMEA-PNU159682]-PEG(24) rebridging the reduced interchain disulfide cysteines; average DAR about 4
Take B7: in test [7], the “EC50 of cytotoxicity, HEK293T-hL1CAM cells (CellTiterGlo, 96 hours)” value worked out at 0.008 nM; the “EC50 of cytotoxicity, MCF-7 cells (CellTiterGlo, 96 hours)” value is 0.03 nM; the “EC50 of cytotoxicity, MDA-MB-231 cells (CellTiterGlo, 96 hours)” value was found to be 3.3 nM.

B8: 13F04 (antibody, V domains shown)
VH: QVQLQQPGAELVKPGASVKLSCKASGYIFISYWMHWVKQRPGQGLEWIGEINPRNGRTNYNEKFKSKATLTVDKSSSTAYMQLTSLTSEDSAVYYCARGGDYGGSFDYWGQGTTLTVSS
VL: DIVLTQSPASLAVSLGQRATISCRASESVDSYGNSFMHWYQQKPGQPPKLLIYRASNLESGIPARFSGSGSRTDFTLTVNPVEADDVATYYCQQSNEDPWTFGGGTKLEIK
notes: mAb from wild-type mice, purified from the supernatant of a hybridoma clone; also called L1CAM mAb 13F04
In the case of B8, the EC50 in test [1] stood at 1.2 nM; in test [3], 1.7 nM; in test [5], 4 nM. The Kd amounted to 1.13 nM in test [2] and 19.8 nM in test [4]. Further, in test [6], the binding result is given as “no binding”.

B9: 76H12 Fab construct 1 (chimeric; parental mouse 76H12 V-regions) (Fab, V domains shown)
VH: QVQLQQPGSDLVRPGTSVKLSCKASGYTFTSYWMHWVKQRPGQGLEWIGNVYPGSGSTKYDEKFKTKATLTVDTSSNTAYMELSSLTSEDSAVYYCTRPGNYEGFAYWGQGTLVTVSA
VL: NIVLTQSPASLAVSLGQRATISCRASESVDSYGSSFMHWYQQKPGQPPKLLIYLASNLESGVPARFSGSGSRTDFTLTIDPVEADDAATYYCQQNNEDPWTFGGGTKLEIK
notes: also called Fab 1; chimeric 76H12 Fab
On to B9, for which, in test [10], the Kd was found to be 39.6 nM, the off-rate (koff) came to 0.0232 s⁻¹ and the kon turned out to be 586000 M⁻¹ s⁻¹.

B10: 143G03 (antibody, V domains shown)
VH: QVQLRQSGAELVRPGTSVKMSCKASGYTFTNYYIHWVKQRPGQGLEWIGKIGPGSGSPYYNGMFKDKATLTVDTSSSTAYMQLSSLTSEDSAVYFCARWLLPFDYWGQGTTLTVSS
VL: QIVLSQSPGILSASPGEKVTMTCRASSSVNYMHWYQQKSGSSPKPWIFATSILASGVPPRFSGSGSGTSYSLTISSVEAEDTATYYCQQFSSDPLTFGAGTKLELK
notes: mAb from wild-type mice; also called 143G03 WT; murine 143G03 mAb
Take B10: the EC50 stood at 0.35 nM in test [1], 0.9 nM in test [3], 1 nM in test [5] and 0.85 nM in test [8]. In addition, the Kd in test [2] was 0.12 nM; in test [4], 0.34 nM. Besides, in [6], the binding result was “no binding”.

B11: Ch143G03-GF (antibody, V domains shown)
VH: QVQLRQSGAELVRPGTSVKMSCKASGYTFTNYYIHWVKQRPGQGLEWIGKIGPGSGSPYYNGMFKDKATLTVDTSSSTAYMQLSSLTSEDSAVYFCARWLLPFDYWGQGTTLTVSS
VL: QIVLSQSPGILSASPGEKVTMTCRASSSVNYMHWYQQKSGSSPKPWIFATSILASGVPPRFSGSGSGTSYSLTISSVEAEDTATYYCQQFSSDPLTFGAGTKLELK
notes: read as chimeric 143G03 (murine variable regions of 143G03, human constant regions). '-GF' is not explained
As to B11, the 50% effective concentration (EC50) in test [8] was determined as 0.727 nM.

B12: 15G02 (antibody, V domains shown)
VH: EVQLVESGGGLVQPGGSLRLSCGVSGFTFSHYWMNWVRQAPGKGLEWVANIMQDGSEKYYVDSVKGRFTISRDNAKNSLYLQMNSLRVEDTAVYYCARDRGVTTLFDYWGQGILVTVSS
VL: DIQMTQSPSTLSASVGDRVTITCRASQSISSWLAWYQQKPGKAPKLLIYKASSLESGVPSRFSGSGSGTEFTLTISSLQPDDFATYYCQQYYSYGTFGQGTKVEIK
notes: as for B5
On to B12, for which the EC50 in [1] came to 1 nM; in test [3] it was 0.98 nM; in test [5], 2.6 nM. The Kd in test [2] was 0.58 nM; in test [4] it was 0.93 nM. Besides, the binding result in test [6] is recorded as “no binding”.
